Measured values taken from patent US20240327535A1 (EISAI R AND D MANAGEMENT, published 2024).
Numbering of substitutions follows the chain as printed. Names may count otherwise. Read-outs that look alike come from different tables or passages of the source.

Legend:
Assay in all cases: Octet BLI; Fab 200 nM
[1] = molecular target: T1, extracellular domain of human BCMA (human, UniProt Q02223 1-54)
T1 construct: amine-linked to Octet AR2G tips; also called hsBCMA; BCMA (human)
T1 sequence: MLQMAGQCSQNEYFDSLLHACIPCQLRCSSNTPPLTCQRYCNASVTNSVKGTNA

[2] = molecular target: T2, extracellular domain of rhesus monkey BCMA (rhesus monkey, UniProt F7FFA0 1-53)
T2 construct: extracellular domain; also called RhBCMA

[3] = molecular target: T1, extracellular domain of human BCMA; remark: listed apart in the source
[4] = molecular target: T2, extracellular domain of rhesus monkey …; remark: listed apart in the source
[5] = molecular target: T1, extracellular domain of human BCMA; remark: listed apart in the source
[6] = molecular target: T2, extracellular domain of rhesus monkey …; remark: listed apart in the source

T2 sequence (F7FFA0 entry or part of it): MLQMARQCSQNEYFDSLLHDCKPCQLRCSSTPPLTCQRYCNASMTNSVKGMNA

B1: AB200-(2Vk30)_R2-VH-v31 (Fab, V domains shown)
VH: QVQLVQSGAEVKKPGSSVKVSCKASGGTFSNYWIHWVRQAPGQGLEWMGATYRSQSDTNYNQKFKSRVTITADKSTSTAYMELSSLRSEDTAVYYCARGAVYHGYDVIDNWGQGTLVTVSS
VL: DIQMTQSPSSLSASVGDRVTITCRASQSISSYLNWYQQKPGKAPKLLIYATSNLQIGVPSRFSGSGSGTDFTLTISSLQPEDFATYYCQQYRRIPWTFGQGTKLEIKR
Q: With B1 as the binder, how does the Kd [1] read?
A: Its Kd is 12.9 nM.

Q: And the Kd [2]?
A: Its Kd is 38.4 nM.

B2: AB200-(2Vk30)_R2-VH-v51 (Fab, V domains shown)
VH: B1 VH with T28S, A50G, S54I, N59Y, V101I, D109E
VL: B1 VL
Q: What does the source list for B2?
A: Kd [1]: 20.3 nM; Kd [2]: 68.9 nM

B3: AB200-(2Vk30)_R2-VH-v65 (Fab, V domains shown)
VH: B1 VH with S54I, D57T, N59Y, V101I, Y105F
VL: B1 VL
Q: How did the Kd [1] turn out when B3 was run?
A: The Kd was 27.3 nM.

Q: And the Kd [2]?
A: The Kd was 46.8 nM.

B4: AB200_Fab + D99N (Fab, name in Kabat numbering, V domains shown)
VH: B1 VH with I34M, S54G, Q55H, N59Y, S66G, V101I, H103N, I108L
VL: B1 VL with R24S, S28D, S31N, A50Y, Q55H, I56S, R93K, I94L
notes: also called D99N variant
Q: For B4, which Kd [3] is on record?
A: Its Kd is 1.23 nM.

Q: What about the koff [3] of the same binder?
A: The koff was 0.00023 s⁻¹.

Q: And the kon [3]?
A: The kon was 190000 M⁻¹ s⁻¹.

Q: And the Kd [4]?
A: The Kd was 3.32 nM.

Q: What about the koff [4] of the same binder?
A: Its koff is 0.00066 s⁻¹.

Q: And the kon [4]?
A: The kon was 200000 M⁻¹ s⁻¹.

B5: AB200-(2Vk30)_R2-VH-v67 (Fab, V domains shown)
VH: B1 VH with S54I, Q55H, D57T, N59Y, Q62E
VL: B1 VL
Q: With B5 as the binder, how does the Kd [1] read?
A: Its Kd is 16.8 nM.

Q: What about the Kd [2] of the same binder?
A: Its Kd is 35.7 nM.

B6: AB200-(2Vk30)_R2-VH-v45 (Fab, V domains shown)
VH: B1 VH with F29Y, S54I, Q55H, D57T, V101I, Y102F
VL: B1 VL
Q: Which results are given for B6?
A: Kd [1]: 720 nM; Kd [2]: 3080 nM

B7: AB200-(2Vk31)_R2-VH-v73 (Fab, V domains shown)
VH: B1 VH with S54I, Q55H, N59Y, N61A, F64Y
VL: B1 VL with Y91F, I94L
Q: What does the source list for B7?
A: Kd [5]: 1.32 nM; Kd [6]: 7.72 nM

B8: AB200-(2Vk30)_R2-VH-v23 (Fab, V domains shown)
VH: B1 VH with A50G, Q55H, N59Y, F64Y, V101I, Y102F
VL: B1 VL
Q: Which results are given for B8?
A: Kd [1]: 6.89 nM; Kd [2]: 25.9 nM

B9: AB200_Fab + D99S (Fab, name in Kabat numbering, V domains shown)
VH: B1 VH with I34M, S54G, Q55H, N59Y, S66G, V101I, H103S, I108L
VL: B1 VL with R24S, S28D, S31N, A50Y, Q55H, I56S, R93K, I94L
Q: How did the Kd [3] turn out when B9 was run?
A: The Kd was 3.86 nM.

Q: And the koff [3]?
A: The koff was 0.00044 s⁻¹.

Q: What about the kon [3] of the same binder?
A: The kon was 110000 M⁻¹ s⁻¹.

Q: And the Kd [4]?
A: Its Kd is 9.75 nM.

Q: What about the koff [4] of the same binder?
A: The koff was 0.00114 s⁻¹.

Q: And the kon [4]?
A: Its kon is 120000 M⁻¹ s⁻¹.

B10: AB200-(2Vk30)_R2-VH-v16 (Fab, V domains shown)
VH: B1 VH with T28S, A50G, Q55H, V101I, Y102F
VL: B1 VL
Q: B10 was tested. Which Kd [1] did it give?
A: Its Kd is 74.6 nM.

Q: And the Kd [2]?
A: The Kd was 178 nM.

B11: AB200-(2Vk30)_R2-VH-v30 (Fab, V domains shown)
VH: B1 VH with Q55H, N61A, V101I, D109E
VL: B1 VL
Q: B11 was tested. Which Kd [1] did it give?
A: Its Kd is 50.4 nM.

Q: What about the Kd [2] of the same binder?
A: Its Kd is 141 nM.

B12: AB200_Fab + D99Q (Fab, name in Kabat numbering, V domains shown)
VH: B1 VH with I34M, S54G, Q55H, N59Y, S66G, V101I, H103Q, I108L
VL: B1 VL with R24S, S28D, S31N, A50Y, Q55H, I56S, R93K, I94L
Q: For B12, which Kd [3] is on record?
A: The Kd was 3.06 nM.

Q: And the koff [3]?
A: Its koff is 0.00053 s⁻¹.

Q: And the kon [3]?
A: Its kon is 170000 M⁻¹ s⁻¹.

Q: And the Kd [4]?
A: The Kd was 7.63 nM.

Q: What about the koff [4] of the same binder?
A: The koff was 0.0014 s⁻¹.

Q: What about the kon [4] of the same binder?
A: The kon was 180000 M⁻¹ s⁻¹.

B13: AB200_Fab + D99T (Fab, name in Kabat numbering, V domains shown)
VH: B1 VH with I34M, S54G, Q55H, N59Y, S66G, V101I, H103T, I108L
VL: B1 VL with R24S, S28D, S31N, A50Y, Q55H, I56S, R93K, I94L
Q: For B13, which Kd [3] is on record?
A: Its Kd is 3.72 nM.

Q: What about the koff [3] of the same binder?
A: Its koff is 0.0003 s⁻¹.

Q: What about the kon [3] of the same binder?
A: The kon was 80000 M⁻¹ s⁻¹.

Q: And the Kd [4]?
A: Its Kd is 11.5 nM.

Q: And the koff [4]?
A: The koff was 0.00099 s⁻¹.

Q: What about the kon [4] of the same binder?
A: Its kon is 90000 M⁻¹ s⁻¹.

B14: AB200-(2Vk30)_R2-VH-v43 (Fab, V domains shown)
VH: B1 VH with S30T, A50G, S54I, Q55H, N59Y, N61A, V101I, Y105F
VL: B1 VL
Q: For B14, which Kd [1] is on record?
A: Its Kd is 6.82 nM.

Q: What about the Kd [2] of the same binder?
A: The Kd was 25.8 nM.
